Blank lines part the entries; values can stand above or below the binder they belong to.
What was measured:
[1] = molecular target: T1, human parkin, full-length, affinity tag cleaved (human, UniProt O60260 1-465); assay: MST + ITC; parkin with CISD1 (Supplementary Fig. S2); the text names 'either MST or ITC' and does not tell which was used for CISD1; conditions: both partners purified
T1 construct: human parkin (RBR E3 ubiquitin ligase), full-length; the MST used the uncleaved His6-Smt3 form; also called unphosphorylated parkin; source: E. coli BL21(DE3), purified (Ni-NTA HisTrap FF, Ulp1 cleavage, gel filtration); not shown: His6, N-terminal, cleaved; Smt3, N-terminal, cleaved

[2] = molecular target: T2, His6-Smt3-Parkin (full-length human parkin, tag kept, labelled with RED-tris-NTA) (human, UniProt O60260 1-465, RED-tris-NTA dye bound to the His tag (Monolith His-Tag Labelling Kit RED-tris-NTA 2nd Generation)); assay: MST; His6-Smt3-Parkin constructs labelled with RED-tris-NTA; unlabelled partner in up to 16 1:1 serial dilutions (from 50 µM for Miro1^181-579); 25°C; PBS-T (PBS 1x, 0.05% Tween 20); 1:1 fit; conditions: both partners purified
T2 construct: human parkin, full-length; Used for MST only; source: E. coli BL21(DE3), purified; not shown: His6, N-terminal, kept; Smt3, N-terminal, kept
T2 sequence (O60260 whole entry): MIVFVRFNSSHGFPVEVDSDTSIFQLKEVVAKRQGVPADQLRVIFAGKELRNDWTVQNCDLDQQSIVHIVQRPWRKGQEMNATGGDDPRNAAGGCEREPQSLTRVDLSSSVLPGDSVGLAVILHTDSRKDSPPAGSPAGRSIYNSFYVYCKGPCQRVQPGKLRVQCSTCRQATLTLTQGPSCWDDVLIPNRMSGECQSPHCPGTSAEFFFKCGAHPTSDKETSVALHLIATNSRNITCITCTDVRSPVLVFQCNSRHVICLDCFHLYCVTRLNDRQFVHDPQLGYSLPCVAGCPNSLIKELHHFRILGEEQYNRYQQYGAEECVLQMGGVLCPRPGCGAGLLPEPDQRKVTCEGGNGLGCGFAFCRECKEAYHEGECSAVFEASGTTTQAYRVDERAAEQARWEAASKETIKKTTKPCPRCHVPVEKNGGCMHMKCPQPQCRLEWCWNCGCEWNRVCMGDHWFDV

T1 sequence (O60260 whole entry): as above

- Kd [1]: > 100 µM
B1: human CISD1 (residues 32-108), entire extramembranous portion (domain or fragment, UniProt Q9NZ45 32-108, looked up)
chain: KRFYVKDHRNKAMINLHIQKDNPKIVHAFDMEDLGDKAVYCRCWRSKKFPFCDGAHTKHNEETGDNVGPLIIKKKET
notes: human CISD1 (MitoNEET) lacking only its transmembrane domain, residues 32-108; also called MitoNEET; source: E. coli BL21(DE3) with FeCl3 in the media, purified (Ni-NTA, TEV cleavage, gel filtration); not shown: His6, N-terminal, cleaved

- Kd [2]: > 100 µM
B2: Miro1^181-579 (near full-length, soluble construct of Miro1 that lacks only its GTPase1 domain) (domain or fragment, human, UniProt Q8IXI2 181-579, looked up)
chain: MKPACIKALTRIFKISDQDNDGTLNDAELNFFQRICFNTPLAPQALEDVKNVVRKHISDGVADSGLTLKGFLFLHTLFIQRGRHETTWTVLRRFGYDDDLDLTPEYLFPLLKIPPDCTTELNHHAYLFLQSTFDKHDLDRDCALSPDELKDLFKVFPYIPWGPDVNNTVCTNERGWITYQGFLSQWTLTTYLDVQRCLEYLGYLGYSILTEQESQASAVTVTRDKKIDLQKKQTQRNVFRCNVIGVKNCGKSGVLQALLGRNLMRQKKIREDHKSYYAINTVYVYGQEKYLLLHDISESEFLTEAEIICDVVCLVYDVSNPKSFEYCARIFKQHFMDSRIPCLIVAAKSDLHEVKQEYSISPTDFCRKHKMPPPQAFTCNTADAPSKDIFVKLTTMAMY
notes: source: E. coli BL21(DE3); purified as previously described by Kumar et al. [11]

Source: article PMC9022993, “Distinct phosphorylation signals drive acceptor versus free ubiquitin chain targeting by parkin” (Biochemical Journal, 2022)
